Source: the supplement of paper PMC5998384

Columns and labels:
[1] = test system: HeLa Kyoto; experiment: solubility in G1/S (NP-40 vs SDS abundance) (log2 ratio); higher = more soluble; conditions: cell cycle stage: G1/S
[2] = test system: HeLa Kyoto; experiment: solubility change mitosis vs G1/S (difference of NP-40 vs SDS log2 ratios) (log2 ratio difference); higher = more soluble in mitosis
[3] = test system: HeLa Kyoto; experiment: melting temperature (median over replicates), in situ; higher = more thermally stable
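Wherever melting temperature (median over replicates), in situ is given: HeLa Kyoto cells synchronized by double thymidine or nocodazole block, proteins quantified by TMT10plex mass spectrometry, three independent biological replicates.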
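Wherever solubility change mitosis vs G1/S (difference of NP-40 vs SDS log2 ratios) is given: synchronized HeLa Kyoto cells (double thymidine block for G1/S, nocodazole release for mitosis), protein amounts in NP-40 versus SDS lysates quantified by mass spectrometry, three biological replicates.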
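Wherever solubility in G1/S (NP-40 vs SDS abundance) is given: HeLa Kyoto cells arrested at G1/S by double thymidine block, proteins quantified by TMT10plex mass spectrometry in mild NP-40 versus SDS extracts, three biological replicates.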

With “MRRAWILLTLGLVACVSAESRAELTSDKDMYLDNSSIEEASGVYPIDDDDYASASGSGADEDVESPELTTSRPLPKILLTSAAPKVETTTLNIQNKIPAQTKSPEETDKEKVHLSDSERKMDPAEEDTNVYTEKHSDSLFKRTEVLAAVIAGGVIGFLFAIFLILLLVYRMRKKDEGSYDLGERKPSSAAYQKAPTKEFYA [SDC2]” the “solubility in G1/S (log2)” value [1] was -0.422, the “solubility change mitosis (log2)” value [2] was -0.902 and the melting temperature ([3]; cell cycle stage: G1/S) was 55.6 °C. For the same sequence, the melting temperature ([3]; cell cycle stage: mitosis) was 59.2 °C.
For “MASYYEILDVPRSASADDIKKAYRRKALQWHPDKNPDNKEFAEKKFKEVAEAYEVLSDKHKREIYDRYGREGLTGTGTGPSRAEAGSGGPGFTFTFRSPEEVFREFFGSGDPFAELFDDLGPFSELQNRGSRHSGPFFTFSSSFPGHSDFSSSSFSFSPGAGAFRSVSTSTTFVQGRRITTRRIMENGQERVEVEEDGQLKSVTINGVPDDLALGLELSRREQQPSVTSRSGGTQVQQTPASCPLDSDLSEDEDLQLAMAYSLSEMEAAGKKPAGGREAQHRRQGRPKAQHQDPGLGGTQEGARGEATKRSPSPEEKASRCLIL [DNAJB2]”, the “solubility in G1/S (log2)” value [1] was 0.0895, the “solubility change mitosis (log2)” value [2] was 0.274 and the melting temperature ([3]; cell cycle stage: G1/S) was 50.2 °C. For the same sequence, the melting temperature ([3]; cell cycle stage: mitosis) was 50.5 °C.
“MVAYWRQAGLSYIRYSQICAKAVRDALKTEFKANAEKTSGSNVKIVKVKKE [ATP5E]” was tested, and the “solubility in G1/S (log2)” value [1] was -0.106, the “solubility change mitosis (log2)” value [2] was 0.368 and the melting temperature ([3]; cell cycle stage: G1/S) was 53.2 °C. It also gave a melting temperature ([3]; cell cycle stage: mitosis) of 51.8 °C.
With “MAAAAPGNGRASAPRLLLLFLVPLLWAPAAVRAGPDEDLSHRNKEPPAPAQQLQPQPVAVQGPEPARVEKIFTPAAPVHTNKEDPATQTNLGFIHAFVAAISVIIVSELGDKTFFIAAIMAMRYNRLTVLAGAMLALGLMTCLSVLFGYATTVIPRVYTYYVSTVLFAIFGIRMLREGLKMSPDEGQEELEEVQAELKKKDEEFQRTKLLNGPGDVETGTSITVPQKKWLHFISPIFVQALTLTFLAEWGDRSQLTTIVLAAREDPYGVAVGGTVGHCLCTGLAVIGGRMIAQKISVRTVTIIGGIVFLAFAFSALFISPDSGF [TMEM165]” the “solubility in G1/S (log2)” value [1] was 0.0487, the “solubility change mitosis (log2)” value [2] was -0.178 and the melting temperature ([3]; cell cycle stage: G1/S) was 60.8 °C. For the same sequence, the melting temperature ([3]; cell cycle stage: mitosis) was 56.9 °C.
“MSVAGLKKQFHKATQKVSEKVGGAEGTKLDDDFKEMERKVDVTSRAVMEIMTKTIEYLQPNPASRAKLSMINTMSKIRGQEKGPGYPQAEALLAEAMLKFGRELGDDCNFGPALGEVGEAMRELSEVKDSLDIEVKQNFIDPLQNLHDKDLREIQHHLKKLEGRRLDFDYKKKRQGKIPDEELRQALEKFDESKEIAESSMFNLLEMDIEQVSQLSALVQAQLEYHKQAVQILQQVTVRLEERIRQASSQPRREYQPKPRMSLEFPTGDSTQPNGGLSHTGTPKPSGVQMDQPCCRALYDFEPENEGELGFKEGDIITLTNQIDENWYEGMLHGHSGFFPINYVEILVALPH [SH3GL2]” was tested, and the “solubility in G1/S (log2)” value [1] was 0.586, the “solubility change mitosis (log2)” value [2] was -0.159 and the melting temperature ([3]; cell cycle stage: G1/S) was 48.7 °C. It also gave a melting temperature ([3]; cell cycle stage: mitosis) of 49.2 °C.
In the case of “MEKIEEQFANLHIVKCSLGTKEPTYLLGIDTSKTVQAGKENLVAVLCSNGSIRIYDKERLNVLREFSGYPGLLNGVRFANSCDSVYSACTDGTVKCWDARVAREKPVQLFKGYPSNIFISFDINCNDHIICAGTEKVDDDALLVFWDARMNSQNLSTTKDSLGAYSETHSDDVTQVRFHPSNPNMVVSGSSDGLVNVFDINIDNEEDALVTTCNSISSVSCIGWSGKGYKQIYCMTHDEGFYWWDLNHLDTDEPVTRLNIQDVREVVNMKEDALDYLIGGLYHEKTDTLHVIGGTNKGRIHLMNCSMSGLTHVTSLQGGHAATVRSFCWNVQDDSLLTGGEDAQLLLWKPGAIEKTFTKKESMKIASSVHQRVRVHSNDSYKRRKKQ [WDR89]”, the “solubility in G1/S (log2)” value [1] was -1.26, the “solubility change mitosis (log2)” value [2] was 0.369 and the melting temperature ([3]; cell cycle stage: G1/S) was 57.4 °C. It also gave a melting temperature ([3]; cell cycle stage: mitosis) of 55.9 °C.
For “MDEERALYIVRAGEAGAIERVLRDYSDKHRATFKFESTDEDKRKKLCEGIFKVLIKDIPTTCQVSCLEVLRILSRDKKVLVPVTTKENMQILLRLAKLNELDDSLEKVSEFPVIVESLKCLCNIVFNSQMAQQLSLELNLAAKLCNLLRKCKDRKFINDIKCFDLRLLFLLSLLHTDIRSQLRYELQGLPLLTQILESAFSIKWTDEYESAIDHNGPPLSPQETDCAIEALKALFNVTVDSWKVHKESDSHQFRVMAAVLRHCLLIVGPTEDKTEELHSNAVNLLSNVPVSCLDVLICPLTHEETAQEATTLDELPSNKTAEKETVLKNNTMVYNGMNMEAIHVLLNFMEKRIDKGSSYREGLTPVLSLLTECSRAHRNIRKFLKDQVLPPLRDVTNRPEVGSTVRNKLVRLMTHVDLGVKQIAAEFLFVLCKERVDSLLKYTGYGNAAGLLAARGLLAGGRGDNWYSEDEDTDTEEYKNAKPKEELLKPMGLKPDGTITPLEEALNQYSVIEETSSDTD [RIC8B]”, the “solubility in G1/S (log2)” value [1] was -0.00976, the “solubility change mitosis (log2)” value [2] was -0.194 and the melting temperature ([3]; cell cycle stage: G1/S) was 49.4 °C. The melting temperature ([3]; cell cycle stage: mitosis) was 49.8 °C.
With “MDTAEDPAWLQLLQKDSSPPGPRPTAFFCPQDGSLGAGSSAMRDYCPSQQKASPAPPRHTPDQSPGMESRHRSPSGAGEGASCSDGPRGSLACPSPTCFSPQESPSKETLEAHGASISGTPEATTSGKPEPVSSVKTEPKSSDDRNPMFLEKMDFKSSKQADSTSIGKEDPGSSRKADPMFTGKAEPEILGKGDPVAPGRMDPMTVRKEDLGSLGKVDPLCSSKTYTVSPRKEDPGSLRKVDPVSSDKVDPVFPRKEEPRYSGKEHPVSSEKVAPTSAEKVDLVLSGKRDPGPSGKADPMPLESMDSASTGKTEPGLLGKLIPGSSGKNGPVSSGTGAPGSLGRLDPTCLGMADPASVGNVETVPATKEDSRFLGKMDPASSGEGRPVSGHTDTTASAKTDLTSLKNVDPMSSGKVDPVSLGKMDPMCSGKPELLSPGQAERVSVGKAGTVSPGKEDPVSSRREDPISAGSRKTSSEKVNPESSGKTNPVSSGPGDPRSLGTAGPPSAVKAEPATGGKGDPLSSEKAGLVASGKAAPTASGKAEPLAVGKEDPVSKGKADAGPSGQGDSVSIGKVVSTPGKTVPVPSGKVDPVSLGKAEAIPEGKVGSLPLEKGSPVTTTKADPRASGKAQPQSGGKAETKLPGQEGAAAPGEAGAVCLKKETPQASEKVDPGSCRKAEPLASGKGEPVSLGKADSAPSRKTESPSLGKVVPLSLEKTKPSSSSRQLDRKALGSARSPEGARGSEGRVEPKAEPVSSTEASSLGQKDLEAAGAERSPCPEAAAPPPGPRTRDNFTKAPSWEASAPPPPREDAGTQAGAQACVSVAVSPMSPQDGAGGSAFSFQAAPRAPSPPSRRDAGLQVSLGAAETRSVATGPMTPQAAAPPAFPEVRVRPGSALAAAVAPPEPAEPVRDVSWDEKGMTWEVYGAAMEVEVLGMAIQKHLERQIEEHGRQGAPAPPPAARAGPGRSGSVRTAPPDGAAKRPPGLFRALLQSVRRPRCCSRAGPTAE [GPRIN1]” the “solubility in G1/S (log2)” value [1] was 0.2, the “solubility change mitosis (log2)” value [2] was -0.114 and the melting temperature ([3]; cell cycle stage: G1/S) was 54.4 °C. The melting temperature ([3]; cell cycle stage: mitosis) was 53.5 °C.
